Laboratory results: patent US20050106653A1
Values belong to the molecule of their own block, whether it stands above or below them.

Experiments:
[1] = molecular target: regulatory p85α subunit of bovine PI 3-kinase (bovine) (UniProt P23727); assay: SPR (Biacore) competition: 100 nM p85α preincubated with soluble peptide, injected over the same peptide immobilised; two site competition fit, first value
[2] = molecular target: regulatory p85α subunit of bovine PI 3-kinase (bovine) (UniProt P23727); assay: SPR (Biacore) competition: 100 nM p85α preincubated with soluble peptide, injected over the same peptide immobilised; two site competition fit, second value
[3] = molecular target: regulatory p85α subunit of bovine PI 3-kinase (bovine) (UniProt P23727); assay: SPR competition: 100 nM p85α with soluble peptide over the same peptide immobilised
[4] = molecular target: rIRS-1 449-664 S570A GST fusion protein preincubated with PKC-ζ, then tyrosine phosphorylated by insulin receptor (rat) (UniProt P35570); assay: cell-based or functional assay
[5] = molecular target: rIRS-1 449-664 S612A GST fusion protein preincubated with PKC-ζ, then tyrosine phosphorylated by insulin receptor (rat) (UniProt P35570); assay: cell-based or functional assay
[6] = molecular target: rIRS-1 449-664 GST fusion protein preincubated with PKC-ζ, then tyrosine phosphorylated by insulin receptor (rat) (UniProt P35570); assay: cell-based or functional assay
[7] = molecular target: rIRS-1 449-664 GST fusion protein preincubated with PKC from rat brain (PKC-rb), then tyrosine phosphorylated by insulin receptor (rat) (UniProt P35570); assay: cell-based or functional assay
[8] = molecular target: GST fusion protein containing amino acids 449-664 of rat IRS-1 (rIRS-1 449-664), no PKC pretreatment (rat) (UniProt P35570); assay: cell-based or functional assay
[9] = molecular target: rIRS-1 449-664 GST fusion protein preincubated with PKC from rat brain (PKC-rb), then tyrosine phosphorylated by insulin receptor (rat) (UniProt P35570); assay: GST pull-down and immunoblot; against insulin-stimulated rIRS-1 449-664 without PKC set as 100%
[10] = molecular target: rIRS-1 449-664 S570A GST fusion protein preincubated with PKC-ζ, then tyrosine phosphorylated by insulin receptor (rat) (UniProt P35570); assay: GST pull-down and immunoblot; against the insulin-stimulated control without PKC-ζ set as 100%
[11] = molecular target: rIRS-1 449-664 S612A GST fusion protein preincubated with PKC-ζ, then tyrosine phosphorylated by insulin receptor (rat) (UniProt P35570); assay: as above
[12] = molecular target: rIRS-1 449-664 GST fusion protein preincubated with PKC-ζ, then tyrosine phosphorylated by insulin receptor (rat) (UniProt P35570); assay: GST pull-down and immunoblot; against insulin-stimulated rIRS-1 449-664 without PKC-ζ set as 100%
[13] = molecular target: T1, GST fusion protein containing amino acids 449-664 of rat IRS-1 (rIRS-1 449-664), no PKC pretreatment
T1 chain: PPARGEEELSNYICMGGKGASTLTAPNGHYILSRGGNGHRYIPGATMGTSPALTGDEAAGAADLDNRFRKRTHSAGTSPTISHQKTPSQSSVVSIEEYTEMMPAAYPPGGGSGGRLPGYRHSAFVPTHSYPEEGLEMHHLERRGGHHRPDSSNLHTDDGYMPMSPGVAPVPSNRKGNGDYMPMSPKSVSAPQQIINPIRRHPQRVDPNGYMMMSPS

Sequence of regulatory p85α subunit of bovine PI 3-kinase (bovine) (P23727 whole entry, the tested form may be a part): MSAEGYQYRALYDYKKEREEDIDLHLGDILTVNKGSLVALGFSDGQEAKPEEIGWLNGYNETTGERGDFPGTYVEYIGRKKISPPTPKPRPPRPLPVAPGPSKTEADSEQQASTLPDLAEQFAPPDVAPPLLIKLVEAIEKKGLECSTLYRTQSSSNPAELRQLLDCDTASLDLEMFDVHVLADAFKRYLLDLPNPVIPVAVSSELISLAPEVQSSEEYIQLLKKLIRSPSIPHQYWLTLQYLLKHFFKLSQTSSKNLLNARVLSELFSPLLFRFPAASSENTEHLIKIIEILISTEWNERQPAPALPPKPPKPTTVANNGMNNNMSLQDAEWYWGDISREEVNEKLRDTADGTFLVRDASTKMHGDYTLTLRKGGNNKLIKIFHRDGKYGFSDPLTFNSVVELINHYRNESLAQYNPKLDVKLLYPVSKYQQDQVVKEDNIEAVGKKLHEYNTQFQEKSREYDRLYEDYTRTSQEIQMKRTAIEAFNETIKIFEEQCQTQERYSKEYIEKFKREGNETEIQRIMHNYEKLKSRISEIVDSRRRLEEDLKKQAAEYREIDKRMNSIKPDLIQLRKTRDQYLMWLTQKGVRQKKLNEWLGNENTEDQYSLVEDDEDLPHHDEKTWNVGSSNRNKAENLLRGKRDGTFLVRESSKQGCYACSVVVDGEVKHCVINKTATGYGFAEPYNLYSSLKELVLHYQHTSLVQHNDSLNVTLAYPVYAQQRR

Molecule: IRS-1 peptide pY608 (DDGpYMPMSPGV), amino acids 605 to 615 of rat IRS-1 with phosphotyrosine 608
IC50 [1]: 260 nM
IC50 [2]: 16600 nM
peptide concentration for complete inhibition [3]: 10 µM

Molecule: insulin receptor, WGA-purified from rat liver, insulin-stimulated and autophosphorylated (from UniProt P15127 27-1383)
reduction of tyrosine phosphorylation by IR after PKC-ζ pretreatment [4]: 30 to 40%
reduction of tyrosine phosphorylation by IR after PKC-ζ pretreatment [5]: 30 to 40%
inhibition of tyrosine phosphorylation [6]: 46%
reduction of tyrosine phosphorylation by IR after PKC-ζ pretreatment [6]: 30 to 40%
reduction of insulin-stimulated tyrosine phosphorylation [7]: 27%
insulin-stimulated tyrosine phosphorylation of rIRS-1^449-664, fold over basal [8]: 8.8 fold

B1: recombinant human protein kinase C-ζ (protein)
chain: MPSRTGPKMEGSGGRVRLKAHYGGDIFITSVDAATTFEELCEEVRDMCRLHQQHPLTLKWVDSEGDPCTVSSQMELEEAFRLARQCRDEGLIIHVFPSTPEQPGLPCPGEDKSIYRRGARRWRKLYRANGHLFQAKRFNRRAYCGQCSERIWGLARQGYRCINCKLLVHKRCHGLVPLTCRKHMDSVMPSQEPPVDDKNEDADLPSEETDGIAYISSSRKHDSIKDDSEDLKPVIDGMDGIKISQGLGLQDFDLIRVIGRGSYAKVLLVRLKKNDQIYAMKVVKKELVHDDEDIDWVQTEKHVFEQASSNPFLVGLHSCFQTTSRLFLVIEYVNGGDLMFHMQRQRKLPEEHARFYAAEICIALNFLHERGIIYRDLKLDNVLLDADGHIKLTDYGMCKEGLGPGDTTSTFCGTPNYIAPEILRGEEYGFSVDWWALGVLMFEMMAGRSPFDIITDNPDMNTEDYLFQVILEKPIRIPRFLSVKASHVLKGFLNKDPKERLGCRPQTGFSDIKSHAFFRSIDWDLLEKKQALPPFQPQITDDYGLDNFDTQFTSEPVQLTPDDEDAIKRIDQSEFEGFEYINPLLLSTEESV
32P incorporation, SDS-PAGE and autoradiography [13]: a prominent phosphorylation of rIRS-1^449-664 by PKC became detectable
phosphopeptide mapping by HPLC of wild type and S570A [13]: serine 570 of IRS-1 is a novel phosphorylation site targeted by PKC-ζ

The remaining lines, values ahead:

IC50 [1]: 150 nM
IC50 [2]: 2880 nM
peptide concentration for complete inhibition [3]: 10 µM
Molecule: IRS-1 peptide pY608-pS612 (DDGpYMPMpSPGV), amino acids 605 to 615 of rat IRS-1 with phosphotyrosine 608 and phosphoserine 612

inhibition of the association of p85α [9]: 49%
p85α binding, % of control [10]: 43 % of control
p85α binding, % of control [11]: 28 % of control
inhibition of p85α binding [12]: 81%
Molecule: regulatory p85α subunit of bovine PI 3-kinase (from UniProt P23727 1-724)
